B1: Circadian clock oscillator protein KaiB (Thermosynechococcus elongatus (strain BP-1)), Q79V61 (parent)
chain: MAPLRKTYVLKLYVAGNTPNSVRALKTLNNILEKEFKGVYALKVIDVLKNPQLAEEDKILATPTLAKVLPPPVRRIIGDLSNREKVLIGLDLLYEEIGDQAEDDLGLE
partner: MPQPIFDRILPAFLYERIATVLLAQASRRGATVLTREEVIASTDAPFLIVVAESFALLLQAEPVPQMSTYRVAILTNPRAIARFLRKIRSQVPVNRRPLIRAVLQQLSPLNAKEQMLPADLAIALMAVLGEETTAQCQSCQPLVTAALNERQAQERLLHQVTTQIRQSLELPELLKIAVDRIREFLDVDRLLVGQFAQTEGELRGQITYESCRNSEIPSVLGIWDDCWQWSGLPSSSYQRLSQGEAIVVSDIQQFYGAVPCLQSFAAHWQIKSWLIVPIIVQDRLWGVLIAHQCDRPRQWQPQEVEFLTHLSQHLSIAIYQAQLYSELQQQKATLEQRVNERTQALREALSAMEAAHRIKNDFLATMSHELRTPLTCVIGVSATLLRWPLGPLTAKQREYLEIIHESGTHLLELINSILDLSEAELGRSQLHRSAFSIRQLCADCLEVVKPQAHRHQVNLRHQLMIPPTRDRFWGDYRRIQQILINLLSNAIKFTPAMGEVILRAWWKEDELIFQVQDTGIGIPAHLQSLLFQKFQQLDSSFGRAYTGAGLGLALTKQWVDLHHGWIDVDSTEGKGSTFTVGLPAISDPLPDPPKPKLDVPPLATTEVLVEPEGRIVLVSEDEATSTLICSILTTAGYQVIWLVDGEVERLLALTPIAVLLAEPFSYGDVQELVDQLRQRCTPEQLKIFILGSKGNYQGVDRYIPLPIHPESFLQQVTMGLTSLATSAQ
B2: Circadian clock oscillator protein KaiB (Thermosynechococcus elongatus (strain BP-1)), Q79V61 (parent)
chain: B1 chain
partner: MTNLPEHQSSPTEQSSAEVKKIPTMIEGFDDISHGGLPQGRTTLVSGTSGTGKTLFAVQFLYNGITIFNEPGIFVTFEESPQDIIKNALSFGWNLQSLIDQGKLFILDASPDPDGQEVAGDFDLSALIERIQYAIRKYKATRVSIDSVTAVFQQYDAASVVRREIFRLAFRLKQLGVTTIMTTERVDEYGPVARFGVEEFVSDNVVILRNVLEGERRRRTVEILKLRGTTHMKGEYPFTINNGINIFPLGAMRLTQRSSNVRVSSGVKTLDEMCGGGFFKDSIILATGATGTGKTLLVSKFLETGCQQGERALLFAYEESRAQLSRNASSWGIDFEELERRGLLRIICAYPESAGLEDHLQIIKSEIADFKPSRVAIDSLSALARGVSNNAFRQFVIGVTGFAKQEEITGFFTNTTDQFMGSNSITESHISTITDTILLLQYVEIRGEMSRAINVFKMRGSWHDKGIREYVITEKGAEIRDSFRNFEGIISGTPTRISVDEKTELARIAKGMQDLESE

Variants of: B1
Details: with cika_thevb cikA

Question: MAPLRKTYVLKLYVAGNTPNSVRALKTLANILEKEFKGVYALKVIDVLKNPQLAEEDKILATPTLAKVLPPPVRRIIGDLSNREKVLIGLDLLYEEIGDQAEDDLGLE [N29A] was tested. Which “effect of a mutation on the interaction” value did it give?
Answer: Its value is “with no effect”.

Variants of: B2
Details: with kaic_thevb kaiC

Question: With MAPLRKTAVLKLYVAGNTPNSVRALKTLNNILEKEFKGVYALKVIDVLKNPQLAEEDKILATPTLAKVLPPPVRRIIGDLSNREKVLAGLDLLAEEIGDQAEDDLGLE [Y8A;I88A;Y94A] as the variant, how does the “effect of a mutation on the interaction” value read?
Answer: Its value is “with no effect”.
